Measured values taken from patent publication US20230242666A1.

Biological target: chondroitin sulfate proteoglycan 4 (CSPG4) (human) (UniProt Q6UVK1)
Assay: cell-based or functional assay

UniProt Q6UVK1, sequence (Q6UVK1 30-2322): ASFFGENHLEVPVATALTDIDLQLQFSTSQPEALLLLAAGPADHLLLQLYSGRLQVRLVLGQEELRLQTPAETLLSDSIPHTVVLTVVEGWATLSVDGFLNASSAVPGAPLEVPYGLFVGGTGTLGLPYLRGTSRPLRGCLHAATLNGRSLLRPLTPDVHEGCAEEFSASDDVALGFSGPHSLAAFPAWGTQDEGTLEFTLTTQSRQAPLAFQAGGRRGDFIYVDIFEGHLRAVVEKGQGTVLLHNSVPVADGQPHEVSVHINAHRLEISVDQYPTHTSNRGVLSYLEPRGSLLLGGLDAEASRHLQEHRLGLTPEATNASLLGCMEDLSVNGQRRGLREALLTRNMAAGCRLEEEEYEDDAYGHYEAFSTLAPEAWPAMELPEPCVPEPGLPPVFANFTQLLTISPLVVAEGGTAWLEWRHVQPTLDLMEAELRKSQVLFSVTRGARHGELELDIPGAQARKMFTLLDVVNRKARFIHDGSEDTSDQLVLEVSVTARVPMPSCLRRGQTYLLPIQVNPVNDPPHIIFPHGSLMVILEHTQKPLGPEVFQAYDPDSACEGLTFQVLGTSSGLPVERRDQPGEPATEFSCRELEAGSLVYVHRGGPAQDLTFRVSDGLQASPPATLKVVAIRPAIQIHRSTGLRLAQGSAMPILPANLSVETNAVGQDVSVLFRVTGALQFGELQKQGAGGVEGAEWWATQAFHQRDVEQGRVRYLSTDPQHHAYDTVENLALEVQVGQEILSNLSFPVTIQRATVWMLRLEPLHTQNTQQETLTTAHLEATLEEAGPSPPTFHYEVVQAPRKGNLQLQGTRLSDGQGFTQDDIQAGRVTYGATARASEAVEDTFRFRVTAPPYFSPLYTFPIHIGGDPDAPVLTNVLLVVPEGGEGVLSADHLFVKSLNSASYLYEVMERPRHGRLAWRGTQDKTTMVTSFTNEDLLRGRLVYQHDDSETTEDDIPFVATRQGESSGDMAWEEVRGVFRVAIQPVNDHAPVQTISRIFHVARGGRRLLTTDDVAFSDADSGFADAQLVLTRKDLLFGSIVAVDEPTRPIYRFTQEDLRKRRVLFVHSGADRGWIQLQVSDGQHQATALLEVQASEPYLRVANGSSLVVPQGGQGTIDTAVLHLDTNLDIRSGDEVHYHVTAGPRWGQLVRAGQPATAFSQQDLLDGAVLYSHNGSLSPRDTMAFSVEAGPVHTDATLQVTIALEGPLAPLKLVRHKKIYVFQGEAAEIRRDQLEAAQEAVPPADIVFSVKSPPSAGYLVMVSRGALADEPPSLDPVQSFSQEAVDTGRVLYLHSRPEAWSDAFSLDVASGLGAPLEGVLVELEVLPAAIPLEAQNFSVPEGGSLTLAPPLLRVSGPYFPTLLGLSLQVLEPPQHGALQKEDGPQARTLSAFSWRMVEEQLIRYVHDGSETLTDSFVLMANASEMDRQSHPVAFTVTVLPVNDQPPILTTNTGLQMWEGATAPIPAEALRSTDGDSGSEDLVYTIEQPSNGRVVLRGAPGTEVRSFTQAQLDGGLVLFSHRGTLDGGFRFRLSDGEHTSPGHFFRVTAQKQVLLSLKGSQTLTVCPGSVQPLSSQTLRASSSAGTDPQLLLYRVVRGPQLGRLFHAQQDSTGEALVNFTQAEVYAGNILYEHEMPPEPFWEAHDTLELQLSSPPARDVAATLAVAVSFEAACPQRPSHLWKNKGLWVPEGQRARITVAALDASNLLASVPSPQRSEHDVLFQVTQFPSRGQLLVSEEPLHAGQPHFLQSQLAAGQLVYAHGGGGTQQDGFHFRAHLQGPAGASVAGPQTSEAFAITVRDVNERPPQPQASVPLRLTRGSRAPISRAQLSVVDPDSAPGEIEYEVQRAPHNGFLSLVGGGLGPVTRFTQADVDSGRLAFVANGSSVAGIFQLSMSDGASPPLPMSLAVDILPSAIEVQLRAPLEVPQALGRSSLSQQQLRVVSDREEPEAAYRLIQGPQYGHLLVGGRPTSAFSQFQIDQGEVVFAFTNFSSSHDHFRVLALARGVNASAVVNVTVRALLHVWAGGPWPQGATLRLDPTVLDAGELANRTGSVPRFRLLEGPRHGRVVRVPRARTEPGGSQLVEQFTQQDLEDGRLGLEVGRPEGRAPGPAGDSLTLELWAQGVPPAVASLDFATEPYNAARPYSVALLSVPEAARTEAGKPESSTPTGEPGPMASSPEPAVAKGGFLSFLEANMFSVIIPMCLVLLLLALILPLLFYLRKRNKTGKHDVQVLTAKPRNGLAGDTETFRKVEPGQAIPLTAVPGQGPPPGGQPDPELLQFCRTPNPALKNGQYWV

B1: h763.74(#2)CD28 CAR (protein, not shown: large carriers)
chain: MDIKLTQSPSILSASVGDRVIITCRASQTIYKNLHWYQQKPHRSPRLLIKYGSDSISGIPSRFSGSGSGTEYTLTISSLQPDDFAIYYCLQGYSTPWTFGGGTKLTVLGGGGGSGGGGSGGGGSGGGGSQVQLVESGGGLVQPGGSLRLSCTASGYTFTDYSMHWVRKTPGKGLKWVGWINTATGEPTYADDFKGRFTISLDTSKNTVYLQMNSLRAEDTATYFCFSYYDYWGQGTTVTVSS
- residual tumor cells after coculture of CAR-T cells with CSPG4+ WM115 melanoma cells: 11%

B2: 763.74(A)4-1BB CAR (protein, not shown: small tags and cut ends)
chain: MQVKLKESGPELKKPGETVKISCKASGYTFTDYSMHWVKKTPGKGLKWLGWINTATGEPTYADDFKGRFAISLETSARTVYLQINNLRNEDTATYFCFSYYDYWGQGTTVTVSSGGGGSGGGGSGGGGDIKLSQSPSILSVTPGETVSLSCRASQTIYKNLHWYQQKSHRSPRLLIKYGSDSISGIPSRFTGSGSGTDYTLNINSVKPEDQGIYYCLQGYSTPWTFGGGTKLEIK
- residual tumor cells after coculture of CAR-T cells with WM115 (CSPG4+) melanoma cells, E:T 1:5: 43.6%

B3: 763.74(A)CD28 CAR (protein, not shown: small tags and cut ends)
chain: B2 chain
- residual tumor cells after coculture of CAR-T cells with WM115 (CSPG4+) melanoma cells, E:T 1:5: 2.2%

B4: h763.74(#5)CD28 CAR (protein, not shown: large carriers)
chain: MEIVMTQSPSTLSASVGDRVIITCRASQTIYKNLHWYQQKPGKSPKLLIKYGSDSISGVPSRFSGSGSGTEYTLTISSLQPDDFATYYCLQGYSTPWTFGQGTKLTVLGGGGGSGGGGSGGGGSGGGGSQVQLVESGGGLVQPGGSLRLSCTASGYTFTDYSMHWVRKAPGKGLEWVGWINTATGEPTYADDFKGRFTISLDTSKNTVYLQMNSLRAEDTAVYFCASYYDYWGQGTLVTVSS
- residual tumor cells after coculture of CAR-T cells with CSPG4+ WM115 melanoma cells: 10%
